Assay results as given in patent publication EP1073891B1, “METHOD OF PREDICTING RECEPTOR MODULATING ACTIVITY” (Duke University, priority 1998, dated 1999).

Tests used:
[1] = molecular target: T1, estrogen receptor α (ERα) (Homo sapiens, UniProt P03372); experiment: LexA yeast two hybrid, β-galactosidase activity assay (Example 3); assay type: cell-based
T1 construct: The full length estrogen receptor was subcloned in frame into the EcoRI and XhoI sites of pJG4-5; expressed in transfected cells; host or cells: Saccharomyces cerevisiae EGY48
T1 sequence (P03372 1-595): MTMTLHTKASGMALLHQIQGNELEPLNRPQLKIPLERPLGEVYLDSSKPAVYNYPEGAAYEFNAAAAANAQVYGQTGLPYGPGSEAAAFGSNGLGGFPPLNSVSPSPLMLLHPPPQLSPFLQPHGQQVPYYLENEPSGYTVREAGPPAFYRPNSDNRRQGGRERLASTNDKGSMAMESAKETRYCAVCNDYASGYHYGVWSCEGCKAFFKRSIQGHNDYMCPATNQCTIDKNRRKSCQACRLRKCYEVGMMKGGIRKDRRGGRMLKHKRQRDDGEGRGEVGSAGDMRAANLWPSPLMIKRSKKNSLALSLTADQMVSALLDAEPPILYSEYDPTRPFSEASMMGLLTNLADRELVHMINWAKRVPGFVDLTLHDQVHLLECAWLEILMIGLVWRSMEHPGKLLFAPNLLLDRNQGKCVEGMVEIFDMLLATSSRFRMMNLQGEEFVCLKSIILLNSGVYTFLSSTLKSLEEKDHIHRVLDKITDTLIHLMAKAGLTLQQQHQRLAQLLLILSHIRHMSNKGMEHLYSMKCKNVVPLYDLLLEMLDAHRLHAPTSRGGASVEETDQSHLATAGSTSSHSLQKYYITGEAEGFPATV
Description: The LexA system that we employ utilizes a bacterial DNA binding protein domain, LexA, and a bacterially derived transcriptional activation sequence, B42. Proteins or peptides of interest are fused in frame with these domains and expressed using episomal plasmids in a yeast cell. The interactions between these proteins/peptides of interest are registered by monitoring the level of the reporter gene product, β-galactosidase, by an enzymatic assay. The differences in the levels of β-galactosidase activities reflect the relative strengths of the protein interactions.
The yeast strains used in this study was EGY48 (MAT a trp1 his3 ura3 leu2::61exAops-LEU2) purchased from OriGeneTechnologies for yeast two hybrid analysis. This strain contains 6 LexA operators upstream of the LEU2 gene in the yeast genome and provides high sensitivity in detecting protein-protein interactions in the LexA two hybrid system. The plasmids used in this study were pEG202 (LexA-DNA binding domain), pJG4-5 (B42-activation domain), and the plasmid containing a β-galactosidase reporter, pJK103 (OriGene Technologies). The full length estrogen receptor was subcloned in frame into the EcoRI and XhoI sites of pJG4-5 to generate an ERα-B42 activation domain fusion. ERα was subcloned in the activation domain plasmid because ERα was able to autoactivate reporters when fused to the LexA DNA binding domain.
The peptide sequences used in this study were generated from synthetic oligos filled in by T7 Sequenase (Life Science) and subcloned into the EcoRI-XhoI sites of pEG202. The synthetic oligos were: [formula] [formula] [formula] [formula] The complementary synthetic oligo used to generate double stranded DNA was 3'XhoPrim, 5'-[…]. Each 5'-oligo was annealed to the 3'-oligo by heating to 90 °C for 15 minutes and cooled slowly to 35 °C. T7 sequenase was added and the fill-in reaction allowed to proceed at 30 °C for 30 minutes. The reaction was terminated by heat denaturing the enzyme at 65 °C for 1 hour, restriction digests were performed and the resulting DNA fragments subcloned into pEG202 to generate peptide-LexA DNA binding domain fusions.
The culture was diluted to ~2x10^6 cells/ml in the same media and allowed to grow at 30 °C until the cultures reached a density of ~1x10^7 cells/ml (∼4 hours). The yeast cells were pelleted by centurifugation, washed with extraction buffer (60 mM Na2HPO4, 40 mMNaH2PO4, 10 mM KCl, 1 mM MgSO4, 1mM PMSF, 7 mM 2-mercaptoethanol) and suspended in 200 µl of extraction buffer. 100 µl of acid-washed glass beads were added and cells were lysed by vigorous agitation for 10 minutes at 4 °C. Cellular debris was pelleted by centrifugation and the supernatant transferred to a clean tube. 10 µg of total cellular protein was diluted into complete Z buffer (60 mM Na2HPO4, 40 mMNaH2PO4 , 10 mM KCl, 1 mM MgSO4, 7 mM 2-mercaptoethanol) to a volume of 100 µl in a 96-well microplate. 80 µg of o-nitrophenyl-β-D-pyranoside (ONPG) in 20 µl was added to each well to initiate color development.
10µg of each protein extract was assayed for β-galactosidase activity using o-nitrophenyl-b-D-pyranoside as substrate. Activity units are defied as 1000* Abs405/minutes/mg/protein.
Values are in beta-galactosidase units (MOD/min/mg)

ERα-VP16 = molecular target: T2, ERα-VP16 (Homo sapiens, UniProt P03372); experiment: Mammalian two-hybrid in HepG2 cells, Gal4-peptide fusions, luciferase reporter (Example 4.1); assay type: cell-based; details: Gal4-peptide fusion, various ligands (Fig. 7)
T2 construct: expressed in transfected cells; host or cells: HepG2
T2 sequence (P03372 1-595): T1 sequence (P03372 1-595)
Description: Peptide sequences representing each class was fused to the DNA binding domain (DBD) of the yeast transcription factor Ga14. HepG2 cells were then transiently transfected with expression vectors for ERα-VP16 and the Gal4-peptide fusion proteins. In addition, a luciferase reporter construct under the control of 5 copies of a Ga14 upstream enhancer element was also transfected along with a pCMV-β galactosidase vector to normalize for transfection efficiency. Transfection of the Ga14 DBD alone is included as control. Cells were then induced with various ligands as indicated in the figure and assayed for luciferase activity and β galactosidase activity. Normalized response was obtained by dividing the luciferase activity by the β galactosidase activity.

ERα = molecular target: T3, ERα (Homo sapiens, UniProt P03372); experiment: Phage ELISA / fingerprint on ER immobilized on biotinylated ERE (Examples 2.3-2.5); assay type: binding; design: purchased PanVera Corporation, Madison, WI; details: for binding to ERα in the in vitro phage display system: presence or absence of estradiol / 4-OH-tamoxifen
T3 sequence (P03372 1-595): T1 sequence (P03372 1-595)

ER = molecular target: T4, ER (Homo sapiens, UniProt P03372); experiment: Disruption of tamoxifen activated ER transcription on several promoters (1x-ERE-Luc, 3X-ERE-Luc, TK-ERE-Luc, C3-Luc) (Example 4.5); assay type: cell-based; details: tamoxifen (10nM), TK-ERE-Luc and C3-Luc
T4 construct: expressed in transfected cells; host or cells: HepG2
T4 sequence (P03372 1-595): T1 sequence (P03372 1-595)

Peptide Interactions with ER Alpha, beta-galactosidase units, value ([1]; 4-hydroxy Tamoxifen) [MOD/min/mg]	Peptide Interactions with ER Alpha, beta-galactosidase units, value ([1]; Estradiol) [MOD/min/mg]	Peptide Interactions with ER Alpha, beta-galactosidase units, value ([1]; No Addition) [MOD/min/mg]	Peptide Interactions with ER Alpha, beta-galactosidase units, value ([1]; Tamoxifen Citrate) [MOD/min/mg]	Sequence	interaction with ERα (normalized luciferase response) (ERα-VP16)	binding to ERα in the in vitro phage display system (ERα)	block of tamoxifen activated transcription on distinct promoters (ER)	binding of the probe to ER α (ERα; in the presence of modulators)
4128	648	548	1005	SSPGSREWFKDMLSR [α/β V]	interact almost exclusively with the tamoxifen bound receptor	–	–	–
3194	605	381	600	SSWDMHQFFWEGVSR [α/β III]	interact almost exclusively with the tamoxifen bound receptor	binds to ERα only in the presence of 4-OH-tamoxifen	–	–
20100	30983	1224	8933	SSLTSRDFGSWYASR [α II]	interacts with the receptor under all conditions with the apo-receptor and ICI 182,780 bound receptor showing the least activity	bind in the presence of estradiol and 4-OH-tamoxifen, but not in their absence	blocks tamoxifen partial agonist activity from all promoters tested	binds to ER α in the presence of any compound that binds to the estrogen receptor
–	–	–	–	SSNHQSSRLIELLSR [α/β I]	interacts with ER in the presence of estradiol and somewhat with the apo-receptor	–	–	–
